Article doi:10.1101/2022.02.05.479199 (bioRxiv, 2022)

Molecular target: Replication protein A (Saccharomyces cerevisiae RPA) (S. cerevisiae, UniProt P22336;P26754;P26755)
Experiment: AUC

Sequence of Replication protein A (Saccharomyces cerevisiae RPA) (P22336 whole entry, chain 1 of 3): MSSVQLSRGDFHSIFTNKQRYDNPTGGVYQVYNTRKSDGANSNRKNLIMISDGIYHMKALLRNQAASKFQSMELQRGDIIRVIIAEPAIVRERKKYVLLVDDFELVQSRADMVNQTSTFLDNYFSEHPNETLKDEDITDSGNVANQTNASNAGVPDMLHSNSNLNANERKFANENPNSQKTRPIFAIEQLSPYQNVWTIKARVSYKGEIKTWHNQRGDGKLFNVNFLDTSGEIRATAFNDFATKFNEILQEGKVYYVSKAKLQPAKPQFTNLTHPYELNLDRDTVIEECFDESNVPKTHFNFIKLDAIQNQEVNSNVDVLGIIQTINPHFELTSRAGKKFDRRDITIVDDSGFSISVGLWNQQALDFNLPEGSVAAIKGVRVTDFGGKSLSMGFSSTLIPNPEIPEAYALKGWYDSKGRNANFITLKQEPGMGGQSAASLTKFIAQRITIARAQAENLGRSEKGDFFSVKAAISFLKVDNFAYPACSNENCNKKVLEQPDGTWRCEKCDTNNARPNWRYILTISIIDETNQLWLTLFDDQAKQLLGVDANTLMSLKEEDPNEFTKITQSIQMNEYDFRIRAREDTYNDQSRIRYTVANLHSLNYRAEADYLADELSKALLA
Sequence of Replication protein A (Saccharomyces cerevisiae RPA) (P26754 whole entry, chain 2 of 3): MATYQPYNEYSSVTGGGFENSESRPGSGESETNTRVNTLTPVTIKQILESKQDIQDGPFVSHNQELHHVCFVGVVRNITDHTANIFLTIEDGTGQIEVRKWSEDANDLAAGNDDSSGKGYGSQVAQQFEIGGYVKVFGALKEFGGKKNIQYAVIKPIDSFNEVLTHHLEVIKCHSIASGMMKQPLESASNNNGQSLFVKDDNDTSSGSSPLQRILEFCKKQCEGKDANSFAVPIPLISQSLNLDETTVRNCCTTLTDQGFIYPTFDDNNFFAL
Sequence of Replication protein A (Saccharomyces cerevisiae RPA) (P26755 whole entry, chain 3 of 3): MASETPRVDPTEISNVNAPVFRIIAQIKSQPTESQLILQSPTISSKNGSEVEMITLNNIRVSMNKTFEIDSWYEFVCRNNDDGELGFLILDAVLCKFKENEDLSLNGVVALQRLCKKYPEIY

binding result: binds
B1: Rtt105^Cy5 (natural protein)
chain: MYSNHNLNSDDCSFDWNEEKAAELQRTGVSFDRSLTPQSLRTSTRRLSEENKQQSGTMHIDTSPSVVSDIISSRRDRSQDFFGPHSSSPIAPSERQRADQRSRLESMRLTRRRDKMTKVRGGLEKMEEMIMQGEHLREMQRLKQEAQKNALPSDMAEYMEWQNNEDLEDDELLAFIEKQETYKNELEHFLNNANKNVYENNSYPNSHT
modifications: Cy5 (maleimide) on Cys-12
